The text below walks through data of patent publication US7067109.

For the test, the target named is anti-VCAM-1•tTF coaguligand (anti-VCAM-1 antibody covalently linked through SMPT to truncated tissue factor) (human) (UniProt P13726). The experiment in a line: 125I-labeled 10H10 on anti-VCAM-1•tTF-treated IL-1α-activated bEnd.3 cells.
Chain of UniProt P13726 (P13726 other isoform, or with tags, fused parts or gaps): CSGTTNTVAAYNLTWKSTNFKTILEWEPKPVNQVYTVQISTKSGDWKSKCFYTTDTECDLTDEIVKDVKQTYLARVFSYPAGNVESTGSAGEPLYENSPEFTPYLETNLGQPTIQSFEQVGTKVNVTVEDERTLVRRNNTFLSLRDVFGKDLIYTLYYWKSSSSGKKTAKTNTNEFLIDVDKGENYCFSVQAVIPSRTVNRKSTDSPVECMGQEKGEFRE

“10H10, mouse monoclonal antibody against human tissue factor”: the amount of antibody bound to the cells at saturation is 8.7 fmol and the molecules of antibody bound per cell at saturation (molecules per cell) came out at 540000.
